According to patent US8647828B2, “Intracellular targeting of molecules via syndecan-4” (Szilak Laboratories Bioinformatics & Molecule-Design Ltd., priority 2007, dated 2014):
Ends that are not written are not given here.

Tests used:
syndecan-4 [1] = assay: FGF2 stimulated syndecan-4 endocytosis, time-lapse confocal microscopy; format: cell-based, human; conditions: HT1080, 22° C., 0, 10 and 60 minutes
syndecan-4 [2] = biological target: T1, syndecan-4 (Homo sapiens, UniProt P31431); assay: Syndecan-4 mediated internalization and nuclear targeting of FITC labeled basic peptides (immunofluorescent microscopy); format: cell-based; conditions: 10 μM FITC labeled peptide
T1 construct: comprising the full, human syndecan-4 cDNA driven by cytomegalovirus (CMV) promoter; expressed in transfected cells; host or cells: HT1080 fibrosarcoma, MCF7 adenocarcinoma
T1 sequence (P31431 19-198): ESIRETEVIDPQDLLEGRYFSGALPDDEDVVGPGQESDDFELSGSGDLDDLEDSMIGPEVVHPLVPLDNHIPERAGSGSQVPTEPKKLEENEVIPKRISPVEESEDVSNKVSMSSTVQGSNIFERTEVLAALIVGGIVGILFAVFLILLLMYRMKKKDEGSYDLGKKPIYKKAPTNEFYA
From the text: Green fluorescent protein (GFP, Clontech; Palo Alto, Calif., USA) labeled fusion proteins were used to follow the process of the endocytosis of syndecan-4 in vivo. GFP was inserted into the syndecan-4 extracellular region in the HuSynd4 pCMV construct, comprising the full, human syndecan-4 cDNA driven by cytomegalovirus (CMV) promoter by using techniques well-known by the person skilled in the art. To avoid possible artifacts, every experiment was repeated with all of the constructs; HuSynd4 pCMV and the GFP chimeras. To reveal the role and the importance of phosphorylation stage of Ser179, mutations were introduced into the cytoplasmic tail region of syndecan-4-GFP chimeras. […]
Syndecan-4 is able to carry the agents bound on the cell surface into the cell. […] The cells were permeabilized with 0.1% triton X-100 (Sigma, St. Louis, Mo., USA) in PBS, and syndecan-4 was visualized with anti-syndecan-4 ectodomain serum (Zymed, San Francisco, Calif., USA), monitored by immunofluorescent microscopy. […] The labeled molecules were detected in distinct compartments of cytoplasm, which indicate that the syndecan-4 was able to internalize and traffic the attached agents, like antibodies, and basic peptides along, holding the specifically bound agents intact throughout the whole process. […]

Substance: FGF2: basic fibroblast growth factor, stimulator of syndecan-4 endocytosis
- syndecan-4 endocytosis (syndecan-4 [1]): stimulated

Substance: KRKRKR (also: FITC label) [6 amino acid basic oligopeptide, fluorescently (FITC) labeled]
- nuclear accumulation of labeled oligopeptide, colocalized with syndecan-4 (syndecan-4 [2]): accumulated in the nucleus
- triggering of syndecan-4 endocytosis and penetration into the cell (syndecan-4 [2]; incubated for an hour): able to trigger the endocytosis, and penetrate
